Molecular target: untagged full-length RAC1 Q61L (UniProt P63000 1-192, Q61L)
Experiment: SPR; MBP-tagged CYRI immobilised on Sensor chip CM5; purified untagged RAC1 Q61L titrated at different concentrations; steady-state responses fitted to a 1:1 binding model
Settings: both partners purified

B1: MBP-tagged full-length CYRI-B (natural protein)
chain: MGNLLKVLTCTDLEQGPNFFLDFENAQPTESEKEIYNQVNVVLKDAEGILEDLQSYRGAGHEIREAIQHPADEKLQEKAWGAVVPLVGKLKKFYEFSQRLEAALRGLLGALTSTPYSPTQHLEREQALAKQFAEILHFTLRFDELKMTNPAIQNDFSYYRRTLSRMRINNVPAEGENEVNNELANRMSLFYAEATPMLKTLSDATTKFVSENKNLPIENTTDCLSTMASVCRVMLETPEYRSRFTNEETVSFCLRVMVGVIILYDHVHPVGAFAKTSKIDMKGCIKVLKDQPPNSVEGLLNALRYTTKHLNDETTSKQIRSMLQ
notes: CYRI-B (encoded by FAM49B), full length; source: E. coli BL21, purified (MBPTrap HP, size-exclusion chromatography)
  Kd: ~38 µM
